Measurements taken from publication PMC8495200, “Domain Organization of the UBX Domain Containing Protein 9 and Analysis of Its Interactions With the Homohexameric AAA + ATPase p97 (Valosin-Containing Protein)” (Frontiers in Cell and Developmental Biology, 2021).
Where “and” joins values, the source holds several entries; their conditions need not be identical. Identical values can stand only once.

Target: the molecule itself
Assay: native gel or EMSA; Blue Native PAGE, purified recombinant non-tagged proteins in 1 x PBS, 1 mM DTT, 1 mM ATP; 4-16% Bis-Tris gels, cold room, Coomassie staining

Row | Protein | stoichiometry N
1 | p97 (valosin-containing protein), D. discoideum, recombinant (enzyme, UniProt P90532 1-793, looked up, AAA+ ATPase p97 (VCP), D. discoideum; purification as in Rijal et al., 2016; Whether p97 was made as a GST fusion and cleaved is not clearly said; also called VCP; source: E. coli XL1 Blue or ArcticExpress, purified) MATIEDTSKDNNNPILERKKAPNRLFVEEAINDDNSVVTLNPETMDQLQFFRGDTLLIKGKKRRDTVCIVLSDPTIDPSKIRMNKVVRNNLRVRLGDMISVHQCSDVKYGKRIHVLPIDDTIEGLSGNLFDLYLKPYFLEAYRPVRKGDLFLVRGGMRAVEFKVVETDPGEYCIVAPETFIHCEGEAVKREDEDRLDEVGYDDIGGVRKQLGQIRELVELPLRHPQLFKNIGVKPPKGILLYGPPGCGKTMIARAVANETGAFFFLINGPEIMSKLAGESESNLRKAFEEAEKNAPSIIFIDEIDSIAPKREKTQGEVERRIVSQLLTLMDGLKSRAHVIVMGATNRPNSIDPALRRFGRFDREIDITIPDATGRLEIMRIHTKNMKLDETVDLEAVANETHGYVGADLAALCTESALQCIREKMDVIDLEDETISAEILESMSVTQDHFRTALTLSNPSALRETVVEVPTTTWEDIGGLEGVKRELRETVQYPVEHPEKFRKFGMQPSKGVLFYGPPGCGKTLLAKAIANECQANFISIKGPELLTMWFGESEANVRELFDKARQAAPCVLFFDELDSIARSRGSSQGDAGGAGDRVINQILTEMDGMNAKKNVFIIGATNRPDIIDPAILRPGRLDQLIYIPLPDLPSRVAILKACLNKSPVAKDVDLEFLGQKTQGFSGADLTEICQRACKLAIRESIEKDIESTKARQESGDTKMEDDSVDPVPEITRDHFQEAMRSARRSVSDNDIRKYESFAQTLVQSRGLGNNFKFPDQESSGQFNQDQSDDLFSN | 6 and 2
2 | UBXD9, full length, GST tag cleaved (natural protein, D. discoideum, UniProt Q54X06 1-573, looked up, The cleaved state is stated for the Blue Native PAGE; also called full-length UBXD9; source: E. coli XL1 Blue or ArcticExpress, purified, liberated from the beads with PreScission protease) MSSIHIIYKTGKTTVPVIASTVMMEVLKKACQYFKIDDSRFQLMYGSTYVNLSLPFRLSGIPNLSRVTIMEKKGASISTVKIAIQMDDGKRFQSNFKTSSTLWDILLTFETEQNLSLTKRFNDVNQYIEPVVTILNREISTIESLQKSSLASINVNEASLIKLTFKQTDRTNEEVLPIIVSYQSPSTPTESPTTTTTTTTTTTTNNTTKEESPKTTNSPTNSESSTKSQNSSGSQQSPIIISPPTQQSTSSDVSTPTMDIDSPLVKNVEKSPISDLGLNPSSNIPLPDKTYNNETTTTTTTTSNNDVQVSTPPKIATMDHKDRELLVYTPSNNQVDPKSIRHNEKMTEEDIKRLVEANKRVKKEKEEFDSVLRTKAMREREAYKKHKNFSTSIIRIVFPGGQKILEMKFLIREKISNLLKYINEYILAQPNDSVYLYTTPPNKTLDLNTTFLKEGLFPRAKIFLGVSPGTTLIFSELVNELIEESNNKNNNNNNNNNTTTTTTSTISQEELDKQEEEQERIEEQMKIEEEKQLKLEDEQEKERQRALRSMFNNEKEGDSQKRPVPKWFTAGKK | 6
